Patent US20240383993A1 (LANOVA MEDICINES, published 2024)

T1: His-tagged cynomolgus 4-1BB protein (cynomolgus, UniProt A9YYE7 24-186)
T1 construct: Coated on ELISA plates at 2 µg/ml; also called Cyno 4-1BB; soluble cynomolgus 4-1BB; not shown: His tag
T1 sequence: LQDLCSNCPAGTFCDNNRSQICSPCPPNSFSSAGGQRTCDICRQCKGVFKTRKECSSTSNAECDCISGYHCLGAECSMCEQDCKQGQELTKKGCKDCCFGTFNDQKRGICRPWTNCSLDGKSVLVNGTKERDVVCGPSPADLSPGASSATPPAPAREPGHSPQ


Legend:
[1] = target: T2, human 4-1BB expressed on cells (human, UniProt Q07011 24-255); test: flow cytometry competition with biotinylated human 4-1BB ligand on CHO-K1/human 4-1BB cells
T2 construct: whole, on cells; also called CHO-K1/hu4-1BB; cell surface human 4-1BB
Description: CHO-K1 cells overexpressing human 4-1BB were incubated with biotinylated human 4-1BB ligand (0.3 μg/ml) in the presence of serial diluted anti-41BB nanobodies for 1 h at 4° C. with Ref mAb as the reference antibody. Then, cells were incubated with Alexa Fluor 633-conjugated streptavidin. Binding was measured with an Agilent flow cytometer. As shown in FIG. 2 and Table 3, all of the tested nanobodies could block 4-1BB ligand binding to 4-1BB in a concentration-dependent manner while Ref mAb had no such effect.

[2] = target: T1, His-tagged cynomolgus 4-1BB protein; test: ELISA, coated His-tagged 4-1BB, anti-human IgG-HRP
Description: (§1) His-tagged 4-1BB was coated at 2 μg/ml overnight and then blocked by 2% BSA in PBS. Serially diluted anti-4-1BB nanobodies were incubated with the coated antigen for 1h at room temperature with a reference antibody “Ref mAb”. The resulting plates were washed with PBS/T and incubated with goat anti-human IgG-HRP for 1 h at room temperature. The plates were developed with TMB substrate and analyzed by spectrophotometer at OD 450 nm.

[3] = target: T3, His-tagged human 4-1BB protein (human, UniProt Q07011 24-186); test: ELISA, coated His-tagged 4-1BB, anti-human IgG-HRP
T3 construct: Coated on ELISA plates at 2 µg/ml; also called hu4-1BB; soluble human 4-1BB; not shown: His tag
Description: as §1

[4] = target: T2, human 4-1BB expressed on cells; test: cell-based or functional assay
[5] = target: T4, cynomolgus 4-1BB overexpressed on CHO-K1 cells (cynomolgus, UniProt A9YYE7 24-254); test: flow cytometry on CHO-K1/Cyno-41BB cells, anti-human Fc-Alexa Fluor 633
T4 construct: whole, on cells; also called CHO-K1/Cyno-41BB; cell surface cyno 4-1BB
Description: (§2) To evaluate the antigen binding property in a cell-based setting, the 4-1BB humanized nanobodies were analyzed for their binding to 4-1BB overexpressed on CHO-K1 cells by FACS.
(§3) Briefly, CHO-K1 cells overexpressing human 4-1BB or cynomolgus 4-1BB were incubated with the serial diluted anti-4-1BB nanobodies for 30 min at 4° C. Then, the cells were incubated with Alexa Fluor 633-conjugated anti-human Fc secondary antibody. Binding was measured with an Agilent flow cytometer.

[6] = target: T2, human 4-1BB expressed on cells; test: flow cytometry on CHO-K1/hu4-1BB cells, anti-human Fc-Alexa Fluor 633
Description: as §2, §3

T2 sequence (Q07011 24-255): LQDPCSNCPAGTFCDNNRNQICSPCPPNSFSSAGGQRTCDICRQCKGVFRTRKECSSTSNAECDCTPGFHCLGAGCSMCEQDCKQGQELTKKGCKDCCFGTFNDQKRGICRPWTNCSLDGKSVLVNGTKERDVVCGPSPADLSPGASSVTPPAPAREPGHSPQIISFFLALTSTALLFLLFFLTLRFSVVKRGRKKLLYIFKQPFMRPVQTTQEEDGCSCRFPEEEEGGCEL
T4 sequence (A9YYE7 entry or part of it): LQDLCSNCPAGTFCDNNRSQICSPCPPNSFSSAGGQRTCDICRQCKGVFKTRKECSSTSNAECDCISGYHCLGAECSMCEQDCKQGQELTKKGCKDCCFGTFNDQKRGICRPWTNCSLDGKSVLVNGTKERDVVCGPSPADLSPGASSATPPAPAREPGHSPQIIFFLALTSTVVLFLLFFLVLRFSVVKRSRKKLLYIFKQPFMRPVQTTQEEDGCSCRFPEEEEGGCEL

Row | Binder | IC50 [1] | EC50 [2] | EC50 [3] | EC50 (nM) in Jurkat-41BB NFκB reporter assay [4] | EC50 [5] | Max (MFI) [5] | EC50 [6] | Max (MFI) [6]
1 | VV02-2LP-13 (Fc fusion, Llama nanobody tested as fusion with human IgG1 Fc (N297A); not shown: Human IgG1 Fc fragment with N297A, plus the hinge or linker joining it to the nanobody) VHH: AVQLVESGGGLVQPGGSLRLSCAASGFTFSSYAMSWARQVPGKGFEWVAYIYSDGSTYYADSVKGRFTISRDNAKDTVYLHMNSLKFEDMAVYYCATWRSQQVGRWDEYDHWGQGTQVTVSS | 0.995 nM | 4.19 nM | > 30 nM | 0.036 nM |  |  |  | 
2 | VV02-1SP (1)-358 (Fc fusion, not shown: a dimerising Fc or GST; small tags and cut ends, Llama nanobody tested as fusion with human IgG1 Fc (N297A)) VHH: EVQLVESGGGLVQPGGSLMISCAASGFTFSSSAMSWARQVPGKGFEWVAYIYSDGSTYYADSVKGRFTISRDNAKDTVYLHMNSLKFEDMAVYYCATWRSQQVGRWDKYDYWGQGTQVTVSS | 0.988 nM | 0.11 nM | > 30 nM | 0.004 nM |  |  |  | 
3 | VV02-1SP (1)-55 (Fc fusion, not shown: a dimerising Fc or GST; small tags and cut ends, Llama nanobody tested as fusion with human IgG1 Fc (N297A)) VHH: EVQLVESGGGLVQPGGSLRLSCAASGFTFSSSAMSWARQVPGKGFEWVAYIYSDGSTYYADSVKGRFTISRDNAKDTVYLHMNSLKFEDMAVYYCATWRSQQVGRWDEYDYWGQGIQVTVSS | 0.573 nM | 1.87 nM | > 30 nM | 0.023 nM |  |  |  | 
4 | VV02-3LP-83 (Fc fusion, Llama nanobody tested as fusion with human IgG1 Fc (N297A); not shown: Human IgG1 Fc fragment with N297A, plus the hinge or linker joining it to the nanobody) VHH: EVDLVESGGGLVQPGGSLRLSCAASGFTFRSYAMSWARQVPGKGFEWVAYIYSDGSTYYADSVKGRFTISRDNAKDTVYLHMNSLKFEDMAVYYCATWRSQQVGRWDEYDHWGQGTQVTVSS | 0.682 nM | 2.03 nM | > 30 nM | 0.014 nM |  |  |  | 
5 | VV02-1LP-417 (Fc fusion, Llama nanobody tested as fusion with human IgG1 Fc (N297A); not shown: Human IgG1 Fc fragment with N297A, plus the hinge or linker joining it to the nanobody) VHH: QLQLVESGGGLVQPGGSLRLSCAASGFALDYSAIGWFRQAPGKEREGVLCISSSGDVTIYADSVKGRFTISRDNAKNTVYLQMNSLKPEDTAVYYCVAPRICSTYSSDDYWGQGTQVTVSS | 2.05 nM |  | 11.1 nM | 0.081 nM |  |  |  | 
6 | VV02-1LP-288 (Fc fusion, not shown: a dimerising Fc or GST; small tags and cut ends, Llama nanobody tested as fusion with human IgG1 Fc (N297A)) VHH: EVQVVESGGGLVQPGGSLRLSCAASGSSLDYSAIGWFRQAPGKEREGVLCISSSGDVTIYADSVKGRFTISRDNAKNTVYLQMNSLKPEDTAVYYCVAPRICSTYSSDDYWGQGTQVTVSS | 2.57 nM |  | > 30 nM | 0.052 nM |  |  |  | 
7 | VV02-1LP-263 huNb_2_3 (Fc fusion, not shown: a dimerising Fc or GST, detection by anti-human Fc) VHH: EVQLVESGGGLVQPGGSLRLSCAASGFTFSSSAMSWARQAPGKGFEWVSGIYSGGSTYYTESVKDRFTISRDNAKNTVYLQMNSLKPEDTAVYYCATWGTLRFGVWAEYDHWGQGTLVTVSS |  |  |  |  | 0.37 nM | 130000 MFI | 0.11 nM | 39100 MFI
8 | VV02-1LP-263 huNb_3_2 (Fc fusion, not shown: a dimerising Fc or GST, detection by anti-human Fc) VHH: QVQLVESGGGLVKPGGSLRLSCAASGFTFSSSAMSWARQAPGKGFEWVSGIYSGGSTYYTESVKDRFTISRDNAKNSLYLQMNSLRPEDTAVYYCATWGTLRFGVWAEYDHWGQGTQVTVSS |  |  |  |  | 0.7 nM | 128000 MFI | 0.14 nM | 38000 MFI
9 | VV02-1LP-263 huNb_1_2 (Fc fusion, not shown: a dimerising Fc or GST, detection by anti-human Fc) VHH: EVQLLESGGGLVQPGGSLRLSCAASGFTFSSSAMSWARQAPGKGLEWVSGIYSGGSTYYTESVKDRFTISRDNSKNTVYLQMNSLKPEDTAVYYCATWGTLRFGVWAEYDHWGQGTLVTVSS |  |  |  |  | 0.69 nM | 99600 MFI | 0.17 nM | 23500 MFI
10 | VV02-1LP-263 huNb_1_3 (Fc fusion, not shown: a dimerising Fc or GST, detection by anti-human Fc) VHH: EVQLLESGGGLVQPGGSLRLSCAASGFTFSSSAMSWARQTPGKGFEWVSGIYSGGSTYYTESVKDRFTISRDNSKNTVYLQMNSLKPEDTAVYYCATWGTLRFGVWAEYDHWGQGTQVTVSS |  |  |  |  | 0.33 nM | 134000 MFI | 0.11 nM | 42100 MFI
11 | VV02-1LP-263 huNb_2_2 (Fc fusion, not shown: a dimerising Fc or GST, detection by anti-human Fc) VHH: EVQLVESGGGLVQPGGSLRLSCAASGFTFSSSAMSWARQAPGKGLEWVSGIYSGGSTYYTESVKDRFTISRDNAKNTLYLQMNSLRPEDTAVYYCATWGTLRFGVWAEYDHWGQGTLVTVSS |  |  |  |  | 0.64 nM | 86400 MFI | 0.19 nM | 23400 MFI
12 | VV02-1LP-263 huNb_3_3 (Fc fusion, detection by anti-human Fc; not shown: Fc part, implied only by the anti-human Fc secondary antibody) VHH: QVQLVESGGGLVQPGGSLRLSCAASGFTFSSSAMSWARQAPGKGFEWVSGIYSGGSTYYTESVKDRFTISRDNAKNSVYLQMNSLKPEDTAVYYCATWGTLRFGVWAEYDHWGQGTQVTVSS |  |  |  |  | 0.7 nM | 149000 MFI | 0.12 nM | 40300 MFI
13 | VV02-1LP-317 (Fc fusion, not shown: a dimerising Fc or GST; small tags and cut ends, Llama nanobody tested as fusion with human IgG1 Fc (N297A)) VHH: EVDLVESGGGLVQPGGSLRLSCAASGFTFSRSAMSWARQAPGKGFEWVSGIYSGGSTYYVDSVEGRFTISRDNAKNTVYLQMNSLKPEDTAVYYCATWGSQQIGVWHEDDYWGQGTQVTVSS | 1.42 nM | 29.3 nM | > 30 nM | 0.031 nM |  |  |  | 
14 | VV02-1SP (1)-73 huNb_1_2 (Fc fusion, detection by anti-human Fc; not shown: Fc part, implied only by the anti-human Fc secondary antibody) VHH: EVQLLESGGGLVQPGGSLRLSCAASGFTFSSSAMSWARQAPGKELEWVSSIYSSGKTYYVESVKGRFTISRDNAKNTLYLQMSSLRAEDTAVYYCATWKTLRVGVWDESDYWGQGTLVTVSS |  |  |  |  |  |  | 0.8 nM | 5240 MFI
15 | VV02-1SP (1)-73 huNb_3_1 (Fc fusion, detection by anti-human Fc; not shown: Fc part, implied only by the anti-human Fc secondary antibody) VHH: EVQLVESGGGLVQPGGSLRLSCAASGFTFSSSAMSWARQAPGKGFEWVASIYSSGKTYYVESVKGRFTISRDNAKNSLYLQMNSLRAEDTAVYYCARWKTLRVGVWDESDYWGQGTLVTVSS |  |  |  |  |  |  | 27.4 nM | 3700 MFI
16 | VV02-1SP (1)-73 huNb_1_3 (Fc fusion, detection by anti-human Fc; not shown: Fc part, implied only by the anti-human Fc secondary antibody) VHH: EVDLVESGGGLVQPGGSLRLSCAVSGFTFSSSAMSWARQAPGKEFEWVSSIYSSGKTYYVESVKGRFTISRDNAKNTVYLQMSSLRPEDTAVYYCATWKTLRVGVWDESDYWGQGTLVTVSS |  |  |  |  |  |  | 0.61 nM | 
17 | VV02-1SP (1)-73 huNb_3_3 (Fc fusion, detection by anti-human Fc; not shown: Human Fc part, implied only by the anti-human Fc secondary antibody) VHH: EVQLVESGGGLVQPGGSLRLSCAVSGFTFSSSAMSWARQAPGKEFEWVSSIYSSGKTYYVESVKGRFTISRDNAKNSVYLQMSSLRPEDTAVYYCATWKTLRVGVWDESDYWGQGTLVTVSS |  |  |  |  |  |  | 0.66 nM | 9630 MFI
18 | VV02-1SP (1)-73 huNb_3_2 (Fc fusion, detection by anti-human Fc; not shown: Human Fc part, implied only by the anti-human Fc secondary antibody) VHH: EVQLVESGGGLVQPGGSLRLSCAASGFTFSSSAMSWARQAPGKGFEWVSSIYSSGKTYYVESVKGRFTISRDNAKNSLYLQMSSLRAEDTAVYYCATWKTLRVGVWDESDYWGQGTLVTVSS |  |  |  |  |  |  | 0.52 nM | 8560 MFI
19 | VV02-1SP (1)-73 huNb_2_3 (Fc fusion, detection by anti-human Fc; not shown: Fc part, implied only by the anti-human Fc secondary antibody) VHH: EVQLVESGGGLVQPGGSLRLSCAVSGFTFSSSAMSWARQAPGKEFEWVSSIYSSGKTYYVESVKGRFTISRDNAKNTVYLQMSSLRPEDTAVYYCATWKTLRVGVWDESDYWGQGTQVTVSS |  |  |  |  |  |  | 0.49 nM | 
20 | VV02-1SP (1)-73 huNb_2_2 (Fc fusion, detection by anti-human Fc; not shown: Fc part, implied only by the anti-human Fc secondary antibody) VHH: EVQLVESGGGLIQPGGSLRLSCAASGFTFSSSAMSWARQAPGKEFEWVSSIYSSGKTYYVESVKGRFTISRDNAKNTLYLQMSSLRAEDTAVYYCATWKTLRVGVWDESDYWGQGTQVTVSS |  |  |  |  |  |  | 0.37 nM | 9270 MFI
